Experimental data from patent publication US20260250421A1 (BIOCYTOGEN PHARMACEUTICALS BEIJING, published 2026).
Substitutions are numbered along the chain they refer to.

T1: His-tagged human PTK7 protein (human, UniProt Q13308 31-704)
T1 construct: Bought protein; also called hPTK7-His; not shown: His tag
T1 sequence: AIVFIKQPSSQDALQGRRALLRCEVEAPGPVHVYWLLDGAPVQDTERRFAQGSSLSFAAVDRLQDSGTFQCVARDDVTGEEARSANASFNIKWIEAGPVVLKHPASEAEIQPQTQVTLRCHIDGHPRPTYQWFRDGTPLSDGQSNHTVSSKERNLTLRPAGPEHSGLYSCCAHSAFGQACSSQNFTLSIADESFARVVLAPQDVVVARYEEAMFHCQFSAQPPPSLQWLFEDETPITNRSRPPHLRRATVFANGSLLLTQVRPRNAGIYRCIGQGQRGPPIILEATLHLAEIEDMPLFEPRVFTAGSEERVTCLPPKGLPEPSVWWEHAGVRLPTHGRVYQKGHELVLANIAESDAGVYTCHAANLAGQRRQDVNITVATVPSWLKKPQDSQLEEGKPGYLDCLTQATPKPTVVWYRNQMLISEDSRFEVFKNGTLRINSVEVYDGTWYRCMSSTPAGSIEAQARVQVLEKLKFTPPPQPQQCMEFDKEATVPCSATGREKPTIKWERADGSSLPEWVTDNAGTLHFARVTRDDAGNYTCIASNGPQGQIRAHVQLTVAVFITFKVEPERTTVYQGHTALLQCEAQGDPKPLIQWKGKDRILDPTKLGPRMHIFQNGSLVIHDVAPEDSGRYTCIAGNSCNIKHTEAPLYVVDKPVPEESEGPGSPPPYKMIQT

T2: human PTK7 on human cancer cell lines (human, UniProt Q13308 31-1070)
T2 construct: Endogenous PTK7 of human tumour cell lines; also called PTK7 on A-431, NCI-H520, NCI-N87, SK-OV-3, BT-20, HCC1954, NCI-H226, NCI-H358, HCT116, PC-3, NCI-H292, NCI-H1975 cells
T2 sequence: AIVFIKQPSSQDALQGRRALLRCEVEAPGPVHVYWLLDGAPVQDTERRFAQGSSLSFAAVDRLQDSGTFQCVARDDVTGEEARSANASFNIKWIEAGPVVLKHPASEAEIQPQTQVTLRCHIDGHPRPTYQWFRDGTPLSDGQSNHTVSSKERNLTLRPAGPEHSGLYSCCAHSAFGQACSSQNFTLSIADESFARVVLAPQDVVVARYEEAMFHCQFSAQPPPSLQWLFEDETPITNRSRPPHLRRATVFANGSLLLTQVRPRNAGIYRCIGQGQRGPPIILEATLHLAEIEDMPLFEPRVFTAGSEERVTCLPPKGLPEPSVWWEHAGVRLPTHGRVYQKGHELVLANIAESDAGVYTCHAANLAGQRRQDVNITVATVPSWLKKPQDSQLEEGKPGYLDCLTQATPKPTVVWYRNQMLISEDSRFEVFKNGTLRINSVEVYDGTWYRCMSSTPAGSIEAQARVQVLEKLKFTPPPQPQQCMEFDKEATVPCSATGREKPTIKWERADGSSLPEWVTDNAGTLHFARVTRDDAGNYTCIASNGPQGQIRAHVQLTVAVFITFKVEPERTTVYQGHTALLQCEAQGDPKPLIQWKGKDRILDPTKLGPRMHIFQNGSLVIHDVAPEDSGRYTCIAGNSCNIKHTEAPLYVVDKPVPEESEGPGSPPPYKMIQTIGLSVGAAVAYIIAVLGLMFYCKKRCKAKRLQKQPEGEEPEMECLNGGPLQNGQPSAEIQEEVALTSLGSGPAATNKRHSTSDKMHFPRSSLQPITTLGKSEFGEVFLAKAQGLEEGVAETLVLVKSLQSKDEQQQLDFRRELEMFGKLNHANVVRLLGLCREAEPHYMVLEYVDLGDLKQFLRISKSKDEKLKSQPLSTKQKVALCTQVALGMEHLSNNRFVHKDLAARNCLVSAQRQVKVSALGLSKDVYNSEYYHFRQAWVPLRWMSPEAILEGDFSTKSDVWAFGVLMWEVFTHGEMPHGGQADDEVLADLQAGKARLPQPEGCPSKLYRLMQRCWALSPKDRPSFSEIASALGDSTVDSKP

B1: 1F2 (antibody, V domains shown)
VH: QVQLVQSGGGLVQPGGSLRLSCAASGFTFSRYEMNWVRQAPGKGLEWVSYINSIGSAINYADSVKGRFTISRDNAKNSLYLQMRSLRAEDTAVYYCVREDNWNPGYWGQGTLVTVSS
VL: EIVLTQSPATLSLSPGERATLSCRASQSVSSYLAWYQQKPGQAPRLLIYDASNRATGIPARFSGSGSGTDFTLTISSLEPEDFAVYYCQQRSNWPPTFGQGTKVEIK
notes: also called anti-PTK7 antibody 1F2
B2: 1A7 (antibody, human IgG1, V domains shown)
VH: QVQLVESGGGVVQPGRSLRLSCAASGFTFSNYGMHWVRQAPGKGLEWVAVIYYDGSNKFYADSVKGRFTISRDNSKNTLYLQMSSLRAEDTAVYYCARDVAPPGSRAEYFHHWGQGTLVTVSS
VL: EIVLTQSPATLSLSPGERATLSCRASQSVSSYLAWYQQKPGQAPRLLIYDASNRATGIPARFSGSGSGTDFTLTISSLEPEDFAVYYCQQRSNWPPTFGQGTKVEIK
notes: also called anti-PTK7 antibody 1A7
B3: 2F5 (antibody, V domains shown)
VH: B2 VH with A23V, V50I, F59Y, S84N, P102A, P103A, F110L
VL: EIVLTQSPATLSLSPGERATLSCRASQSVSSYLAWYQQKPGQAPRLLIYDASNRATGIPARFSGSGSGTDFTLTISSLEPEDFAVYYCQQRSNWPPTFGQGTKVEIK
notes: also called anti-PTK7 antibody 2F5
B4: 2A5 (antibody, V domains shown)
VH: B2 VH with E6Q, Y52W, S56R, F59Y, S84N, P103A, H111Q, H112N
VL: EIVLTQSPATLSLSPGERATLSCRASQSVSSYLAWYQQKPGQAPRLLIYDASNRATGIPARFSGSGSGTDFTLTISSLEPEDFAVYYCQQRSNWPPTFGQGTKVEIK
notes: also called anti-PTK7 antibody 2A5
B5: 2D11 (antibody, V domains shown)
VH: B2 VH with N31S, Y52F, F59Y, S84N, A92S, P102A, H111Q, H112N
VL: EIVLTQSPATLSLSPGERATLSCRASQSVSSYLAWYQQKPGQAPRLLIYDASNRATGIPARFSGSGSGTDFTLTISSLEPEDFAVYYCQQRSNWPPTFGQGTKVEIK
notes: also called anti-PTK7 antibody 2D11
B6: 1A11 (antibody, V domains shown)
VH: QVQLVQSGPGLVKPSETLSLTCTVSGGSINSYYWNWIRQPPGKGLEWIGYIYYSGSTNYNPSLKSRVTISVDTSKNQFSLKLSSVTAADTAVYYCARDPHDYIRGHFDLWGRGTLFTVSS
VL: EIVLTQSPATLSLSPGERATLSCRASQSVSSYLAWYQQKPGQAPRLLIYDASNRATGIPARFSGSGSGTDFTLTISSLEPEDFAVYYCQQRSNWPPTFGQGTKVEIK
notes: also called anti-PTK7 antibody 1A11
B7: 3C4 (antibody, V domains shown)
VH: QVQLEQSRAEVKKPGESLRISCKGSGYSFTSYWISWVRQMPGKGLEWMGRIDPSDSYTNYNPSFQGHVTISADKSISTAYLQWSSLKASDTAMYYCARRDGSYFDFDYWGQGTLVTVSS
VL: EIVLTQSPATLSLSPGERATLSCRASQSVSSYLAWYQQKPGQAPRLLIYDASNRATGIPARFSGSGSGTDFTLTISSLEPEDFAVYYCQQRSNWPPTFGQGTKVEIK
notes: also called anti-PTK7 antibody 3C4
B8: 3E6 (antibody, V domains shown)
VH: B7 VH with E5V, Q6E, R8G, K23R, N59K, N61S, S102D
VL: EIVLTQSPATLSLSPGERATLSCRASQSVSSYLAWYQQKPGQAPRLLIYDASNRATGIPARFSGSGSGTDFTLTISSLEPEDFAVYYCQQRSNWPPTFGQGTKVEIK
notes: also called anti-PTK7 antibody 3E6

The binders below were run against T1, His-tagged human PTK7 protein (assay: BLI Octet binning on hPTK7-His; competitor 2D11).
Procedure: Relative positions of target protein epitope between a pair of purified anti-PTK7 antibodies were analyzed by Biolayer Interferometry (BLI) using ForteBio Octet system at 30° C. A total of […] purified antibodies were used: 1A7, 1A11, 1F2, 2A5, 2D11, 2F5, 3C4 and 3E6.
1×HBS-EP+ buffer (10 mM 4-(2-hydroxyethyl)-1-piperazineethanesulfonic acid (HEPES), 150 mM NaCl, 3 mM ethylenediaminetetraacetic acid (EDTA) and 0.05% P20, pH7.4) diluted from HBS-EP+ buffer (10×) was used as the running buffer throughout the experiment. His-tagged human PTK7 protein was captured at a flow rate of 10 μL/min, and 200 nM of antibody (Analyte 1) was injected at a flow rate of 30 μL/min to bind the ligand. Another antibody (Analyte 2) was injected under the same conditions to determine whether the binding of different antibodies interfered with each other. The binding time was 300 s for each antibody.
The binding value of each antibody was obtained using Data Analysis HT 12.0. To quantify the interference of one antibody binding to another, a binding ratio was calculated to compare each pair of antibodies. The binding ratio is defined as the binding value of the second antibody (Analyte 2), divided by the binding value of the first antibody (Analyte 1). […] In general, antibody pairs that interfere with each other have the same or overlapping epitopes.

binding ratio	Binder
0.62	B1
0.1	B2
0.07	B3
-0.07	B4
0.15	B5
0.71	B6
0.91	B7
0.76	B8

What follows are binders tested against T2, human PTK7 on human cancer cell lines (assay: flow cytometry, A-431 cells, Ab 5 ug/mL).
Procedure: The binding activity of anti-PTK7 antibodies to cancer cell lines was verified by flow cytometry. […] Purified anti-PTK7 antibody with a concentration of 5 μg/mL was added to each well and was incubated at 4° C. for 30 minutes. […] The cells were collected, and the mean fluorescence intensity (MFI) was determined. Human IgG1 was used as ISO control.

MFI	Binder
156000	B1
91100	B2
106000	B3
173000	B4
295000	B5
247000	B6
186000	B7
289000	B8
